The supplement of paper PMC11780869

Test system: Bacillus subtilis
Assay: cleaved RNA product abundance (RNA/gDNA barcode ratio) relative to median wild-type variant (ratio to wild type); higher = more accumulation of the downstream cleavage product
Method in brief: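 Truncated aprE or tetM reporter mRNAs with barcoded RNase Y cleavage-site windows, mutagenized from oligos at a 9% error rate, sat in the B. subtilis chromosome. Cells grew in LB at 37°C from OD600 0.0003 to 0.3. Gel-selected cleaved RNA was reverse transcribed and its barcodes sequenced with those from genomic DNA, collapsing by UMI. Cleaved product abundance equals the RNA:gDNA barcode ratio per construct over the median construct with the unmutated site.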

[1] = experiment (reporter, strain, medium): exp 8a: truncated aprE reporter, strain BJT201 with 2% xylose (RNase J1 expressed), cleavage site: glnRA (positions -5 to +31 mutated)
[2] = experiment (reporter, strain, medium): exp 4a: truncated aprE reporter, strain BJT201 with 2% xylose (RNase J1 expressed), cleavage site: cggR-gapA (positions -7 to +36 mutated)
[3] = experiment (reporter, strain, medium): exp 2b: truncated aprE reporter, strain BJT200, cleavage site: cggR-gapA (positions -7 to +36 mutated)
[4] = experiment (reporter, strain, medium): exp 6: tetM reporter, strain 168, cleavage site: cggR-gapA (positions -7 to +36 mutated)

Sequence	cleaved RNA product abundance [2]	cleaved RNA product abundance [3]	other results
CGACATGTCCCGCTTCTTTCATTACTACGTTAGCAACTGTTTTGCTATATATATTTACCTTTTAAGAGGAGGAAT			cleaved RNA product abundance [1]: 1.18
ACAGACGAAGGAGCCGCAAAGAAGTTATTAACGGATGAATAATCCCTCAACATAAATATCTCTCACTTATTTAAA	0.172		
ACAGACGAAGGAGCCGCAAAGAAGTTATTAAGGGATGAATAATCGTTCAATATAAATATCTCTCACTTATTTAAA	0.0943		
CGACATGTCCCGCTTCTTTCATTATTCCAATAGCAACTGTTTTGCTATATACATTTACCTTTTAAGAGGAGGAAT			cleaved RNA product abundance [1]: 0.925
ACAGACGAAGGAGCCGCAAAGAAGTTATTAAGGGACGAATAATCCCACAATATAAATATCTCTCACTTATTTAAA		0.13	
CGACATGTCCCGCTTCTTTCATTAATCCGTTAGCAACTGTTTTTCTATATACATTTACCTTTTAAGAGGAGGAAT			cleaved RNA product abundance [1]: 0.576
ACAGACGAAGGAGCCGCAAAGAAGTTAATAAGGGATGAATAATCCGTCAATATAAATATCTCTCACTTATTTAAA		0.177	
ACAGACGAAGGAGCCGCAAAGAAGTAATTAACGGATGAATAATCCCTCAATATAAATATCTCTCACTTATTTAAA	0.133		
ACAGACGAAGGAGCCGCAAAGAAGTAAGTAAGGGATGAATAATCCCTCAATATAAATATCTCTCACTTATTTAAA	0.378	0.212	
ACAGACGAAGGAGCCGCAAAGAAGTTATTAAGGGAAGAATAATCCCTCAATATAAAAATCTCTCACTTATTTAAA	0.563		
ACAGACGAAGGAGCCGCAAAGAAGTTATTAAGGCAGGAATAATCCCTCAATATAAATATCTCTCACTTATTTAAA	0.167	0.102	
ACAGACGAAGGAGCCGCACAGAAGTTATTAAGGGATGAATAATCCTTCAATATAAATATCTCTCACTTATTTAAA	0.469	0.461	
CGACATGTCCCGCTTCTTTCATTAATCCGTTAGCAACTTATTTGCTATATACATTTACCTTTTAAGAGGAGGAAT			cleaved RNA product abundance [1]: 1.85
ACAGACGAAGGAGCCGCAAAGAAGATATTAAGGGATGAACAATCCCTCAATATAAATATCTCTCACTTATTTAAA	0.647		
ACAGACGAAGGAGCCGCAAAGAAGTTATTAAGGGATGAATAATCCCTCAATATAAACCTCTCTCACTTATTTAAA	0.171		
ACAGACGAAGGAGCCGCAAAGAAGTTATTAAGGGATGAAAAATCCCTCAATAGAAATATCTCTCACTTATTTAAA	0.192		
ACAGACGAAGGAGCCGCAAAGAAATTATTAAGGGATGAATAATCCCTCAATATAAATATCTCTCACTTATTTAAA	0.783	0.826	cleaved RNA product abundance [4]: 0.759
ACAGACGAAGGAGCCGCAAAGAAGTTATTAAGGGATGAATAATCACTCAATCTAAATATCTCTCACTTATTTAAA	0.0379		
ACAGACGAAGGAGCCGCAAAGAAGTTCTTAAGGAATGAATAATCCCTCAATATAAATATCTCTCACTTATTTAAA	0.133		
ACAGACGAAGGAGCCGCAGAGAAGTTATTAAGGGATGAATAATCCCTCAATATAAATAACTCTCACTTATTTAAA	0.451	0.518	

Sequence	cleaved RNA product abundance [2]	cleaved RNA product abundance [3]	other results
ACAGACGAAGGAGCCGCAAAGAAGTTATTAAGGGATGAATAATCTCTCAATATAAATATCTCTCACTTATTTAAA	0.738	0.688	cleaved RNA product abundance [4]: 0.96
CGACATGTCCCGCTTCTTTCATTAATCCGACAGCAACTGTTTTGCTATATACATTTACCTTTTAAGAGGAGGAAT			cleaved RNA product abundance [1]: 0.335
ACAGACGAAGGAGCCGCATAGAAGTTATTAAGGGATGAATAATGCCTCAATATAAATATCTCTCACTTATTTAAA	0.141		
ACAGACGAAGGAGCCGCAAAGAAGTTATTAAGGGATGAATAATCCCTCAATATAAATATCTCTCACTATTTAAAG	1.23	1.28	
ACAGACGAAGGAGCCGCATAGAAGTTATTAAGGAATGAATAATTCCTCAATATAAATATCTCTCACTTATTTAAA	0.893		
ACAGACGAAGGAGCCGCAAAGAAGTTATTAAGGGATTAATAATCCCTCAGTATAAATATCTCTCACTTATTTAAA	0.224		
ACAGACGAAGGAGCCGCAAAGAAGTTAATAAGGGATGAATATTCCCTCAATATAAATATCTCTCACTTATTTAAA	0.279	0.246	
CGACATGTCCCGCTTCTTTCATTAATCCGTTAGCAACTGTTTTGCTAGATACATTTACCTTTTAAGAGGAGGAAT			cleaved RNA product abundance [1]: 0.43
ACAGACGAAGGAGCCGCAAAGAAGTTATTAAGGGATTAATAATCCCTTAATATAAATATCTCTCACTTATTTAAA	0.563		
ACAGACGAAGGAGCCGCAAAAAAGTTATTAAGGGATGAATAATCCCTCAATATAAAAATCTCTCACTTATTTAAA	0.82	1.08	
ACAGACGAAGGAGCCGCAAAGAAGTTACTAAGGAATGAATAATCCCTCAATATAAATATCTCTCACTTATTTAAA	0.143	0.0952	
CGACATGTCCCGCTTCTTTCATTAATCCGTTAGCAACTGTTTTGCTATATACCTTCACCTTTTAAGAGGAGGAAT			cleaved RNA product abundance [1]: 0.276
ACAGACGAAGGAGCCGCAAAGATGTTATTAAGGGATGAATAATCCCTCAAAATAAATATCTCTCACTTATTTAAA	0.502		
CGACATGTCCCGCTTCTTTCATTATTCCGTTAGCAAATGTTTTGCTATATACATTTACCTTTTAAGAGGAGGAAT			cleaved RNA product abundance [1]: 1.75
CGACATGTCCCGCTTCTTTCATTAATCCGTTAGCAACTGTTTTGCTATACACATTTACCTTTTAAGAGGAGGAAT			cleaved RNA product abundance [1]: 0.459
ACAGACGAAGGAGCCGCAAATAAGCTATTAAGGGATGAATAATCCCTCAATATAAATATCTCTCACTTATTTAAA	0.149		
ACAGACGAAGGAGCCGCAAAGAAGTTATTAAGGGATGAAAAATCCCTCAATATAATTATCTCTCACTTATTTAAA	0.171		
CGACATGTCCCGCTTCTTTCATTAATCCGTTTGCAAATGTTTTGCTATATACATTTACCTTTTAAGAGGAGGAAT			cleaved RNA product abundance [1]: 0.446
ACAGACGAAGGAGCCGCTACGAAGTTATTAAGGGATGAATAATCTCTCAATATAAATATCTCTCACTTATTTAAA	0.816		
CGACATGTCCCGCTTCTTTCATTATTCCGTTAACAACTGTTTTGCTATATACATATACCTTTTAAGAGGAGGAAT			cleaved RNA product abundance [1]: 0.239

Sequence	cleaved RNA product abundance [2]	cleaved RNA product abundance [3]	other results
ACAGACGAAGGAGCCGCAAAGAAGTTATTAAGGCATGAATAATCCCTCAATATAAATATCTCTCACTTATTTAAA	0.125	0.0901	cleaved RNA product abundance [4]: 0.124
CGACATGTCCCGCTTCTTTCATTAATCCGTTAGCAACTGTTTTACTATATACATTTAACTTTTAAGAGGAGGAAT			cleaved RNA product abundance [1]: 0.539
ACAGACGAAGGAGCCGCAAAGACTTTATTAAGGGATGAATAATCCCTCAATATAAATATCTCTCACTTATTTAAA	0.8		
ACAGACGAAGGAGCCGCAAAGAAGTTATTAAGGCATGAATAATCCCTCCATATAAATATCTCTCACTTATTTAAA		0.0936	
ACAGACGAAGGAGCCGCAAAGAAGTTATTAAGGCATGAATAATCCCTTAATATAAATATCTCTCACTTATTTAAA	0.291	0.411	
ACAGACGAAGGAGCCGCAAAGAAGTTATAAAGGGCTGAATAATCCCTCAATATAAATATCTCTCACTTATTTAAA	0.286		
ACAGACGAAGGAGCCGCAAAGAAGTTATTAGGGGAAGAATAATCCCTCAATATAAATATCTCTCACTTATTTAAA		0.278	
ACAGACGAAGGAGCCGCAAAGAAGTTATTAAGGAATGAATAACCCCTCAATATAAATATCTCTCACTTATTTAAA	0.101		
ACAGACGAAGGAGCCGCAAAGAAGTTATTAAGGAATGAACAATCCCTCAATATAAATATCTCTCACTTATTTAAA	0.124	0.0794	
ACAGACGAAGGAGCCGCAAAGAAGTTATTACGGGATGAATAATCCCTCAATATAAATATCTCTCACTTATTTAAA	0.46	0.32	cleaved RNA product abundance [4]: 0.453
ACAGACGAAGGAGCCGCAAAGAAGTTATAAAGGCATGAATAATCCCTCAATATAAATATCTCTCACTTATTTAAA	0.113	0.122	
ACAGACGAAGGAGCCGCAAAGAAATTATTAAGGGATGGATAATCCCTCAATATAAATATCTCTCACTTATTTAAA	0.62		
ACAGACGAAGGAGCCGCAAAAAAGTTATTAAGGGATGAATAGTCCCTCAATATAAATATCTCTCACTTATTTAAA	0.961	0.786	
ACAGACGAAGGAGCCGCAAACAAGTTATTAAGGGATTAATAATCCCTCAATATAAATATCTCTCACTTATTTAAA	0.656	1.02	
CGACATGTCCCGCTTCTTTCATTAAACCGTTAGCAACTGTTTTGCTATATAAATTTACCTTTTAAGAGGAGGAAT			cleaved RNA product abundance [1]: 1.02
ACAGACGAAGGAGCCGCAAAGAAGTTACAAAGGGATGAATAATCCCTCAATATAAATATCTCTCACTTATTTAAA	0.257		
ACAGACGAAGGAGCCGCAAAGAAGTTAATAGGGGATGAATAATCCCTCAATATAAATATCTCTCACTTATTTAAA	0.292		
CGACATGTCCCGCTTCTTTCATTAATCCGTTAGCAACTTTTTGGCTATATACATTTACCTTTTAAGAGGAGGAAT			cleaved RNA product abundance [1]: 0.563
ACAGACGAAGGAGCCGCAAAGAAGTTATTAAAGGATGAATCATCCCTCAATATAAATATCTCTCACTTATTTAAA	0.212	0.178	
